Data on 1 protein can be found in article PMC8495130, “Synthesis of L-asparagine Catalyzed by a Novel Asparagine Synthase Coupled With an ATP Regeneration System” (Frontiers in Bioengineering and Biotechnology, 2021).

Substrate in data set [1]: Nc1ncnc2c1ncn2[C@@H]1O[C@H](COP(=O)(O)OP(=O)(O)OP(=O)(O)O)[C@@H](O)[C@H]1O
As to the kind of experiment: HPLC of L-Asn after OPA derivatization; double reciprocal plot. The format is biochemical, Ligilactobacillus salivarius. The conditions noted are these: standard assay: L-Asp, NH4Cl, Mg2+, Tris-HCl pH 8.0, 37°C, purification state of the kinetic sample not stated. The text has this:
HPLC of L-Asn after OPA derivatization; double reciprocal plot on LsaAS-A

Substrate in data set [2]: N[C@@H](CC(=O)O)C(=O)O
As to the kind of experiment: purified protein. The conditions noted are these: standard assay: NH4Cl, ATP, Mg2+, Tris-HCl pH 8.0, 37°C, purification state of the kinetic sample not stated.

Substrate in data set [3]: N
As to the kind of experiment: purified protein. Conditions: standard assay: L-Asp, ATP, Mg2+, Tris-HCl pH 8.0, 37°C, purification state of the kinetic sample not stated.

By Km is commonly meant the substrate concentration at which the rate is half of its maximum.

B1: LsaAS-A (Ligilactobacillus salivarius UCC118) (protein)
chain: MDLIIPKDYDPKLSIRETQEAIRYIRETFQDEFGKEMGLNRVSAPMYVEKSSGINDNLNGYEKPVSFTMKDMPGETIEVVHSLAKWKRMALKKYGFGLHEGLYTNMNAIRKDEDLDNFHSSYVDQWDWEKVISKDERNEKTLKETVELIFKVVKHMEHEVWYKFPNAVYHLPDKIHFITSQELEDKYPELEDAKDRENAICKELGCVFVMQIGDVLKSGKRHDGRAPDYDDWKLNGDILFWYEPLQCALELSSMGIRVDEDSMVEQLKKTGDEDRLKLQYHKMILNKELPYTIGGGIGQSRLCMLLLGKAHVGEVQASIWPDEMLKKCEENGIHIL
notes: full-length asnA product (~40 kDa) from plasmid pMA5, expressed in Bacillus subtilis WB600; Ni-NTA purification described in methods
Turning to B1, the figures for the Michaelis constant (Km) (in data set [1]; in the data set “purified protein [2]”; in the data set “purified protein [3]”) were 2240 µM, 780 µM and 6500 µM, respectively.
